The target of the assay is Chicken skeletal muscle actin (chicken) (UniProt P68139). Put plainly: TIRF microscopy.

“tropomyosin AlaSer-Cdc8, labeled (natural protein)”: the percent of Fim1 association with F-actin prevented by Cdc8 alone was 50%.

The values above are taken from article doi:10.1101/169961.
